What all share (format): in vivo, Varicella zoster virus
Experiment [1] relates to gE antigen. Description: Mice immunized with gE, TQL-1055 choline salt with or without PHAD liposomes (Example 2): anti-gE IgG endpoint titers. The procedure:
The impact of TQL-1055 choline salt (Compound I-4 choline salt) on antibody titers induced by gE antigen was tested. Mice were immunized with gE (5 mcg) alone, gE (5 mcg) with liposomes containing PHAD (5 mcg), gE (5 mcg) with liposomes containing PHAD (5 mcg) and TQL-1055 choline salt (five groups: 5 mcg, 10 mcg, 20 mcg, 40 mcg, 80 mcg), and gE (5 mcg) with TQL-1055 choline salt (five groups: 5 mcg, 10 mcg, 20 mcg, 40 mcg, 80 mcg). Mice were immunized at Day 0 and Day 14. Groups were bled at Day 13 (post Dose 1) and Day 28 (post Dose 2) for serum analysis.

The subject of experiment [2] is gE antigen. Description: Mice immunized with gE and liposomal adjuvant (Example 1): gE-specific total IgG titers. The procedure: (§1) The impact of TQL-1055 free acid (Compound I-4 free acid) on antibody titers induced by gE antigen was tested. Mice were immunized with gE (5 mcg) alone, gE (5 mcg) with blank liposomes, gE (5 mcg) with liposomes containing PHAD (7.5 mcg), gE (5 mcg) with liposomes containing PHAD (7.5 mcg) and TQL-1055 free acid (four groups: 5 mcg, 15 mcg, 30 mcg, 50 mcg), and gE (5 mcg) with liposomes containing MPL® (7.5 mcg) and QS-21 (5 mcg). Mice were immunized at Day 0 and Day 14. Groups were bled at Day 14 (post Dose 1) and Day 28 (post Dose 2) for serum analysis for anti-gE specific antibody response.
(§2) Log 10 transformed GMT were compared using One-way ANOVA. Groupwise comparisons were made and p-values adjusted for multiple comparisons with Tukey's post-hoc test. Groups 1 and 2 were excluded from the analysis. Family-wise α=0.05.

Experiment [3] has as its system gE antigen. Description: Mice immunized with gE and liposomal adjuvant (Example 1): gE-specific total IgG1 titers. The protocol:
as §1, §2

Experiment [4] relates to gE antigen. Nature of the experiment: Mice immunized with gE and liposomal adjuvant (Example 1): gE-specific total IgG2c titers. As to conditions: post dose 1, 50 mcg TQL-1055 free acid with PHAD liposomes. The procedure:
as §1, §2

Experiment [5] relates to gE antigen. Description: Mice immunized with gE, oil-in-water emulsion (L2), TQL-1055 and PHAD liposomes (Example 3): anti-gE IgG endpoint titers. The conditions noted are these: mice immunized Day 0 and Day 14. The procedure:
The impact of an oil-in-water emulsion containing TQL-1055 free acid (Compound I-4 free acid), TQL-1055 choline salt (Compound I-4 choline salt), PHAD liposomes, and combinations thereof on antibody titers induced by gE antigen was tested. Mice were immunized with PBS alone, gE (5 mcg) alone, gE (5 mcg) in an oil-in-water emulsion (L2), gE (5 mcg) and TQL-1055 choline salt (three groups: 5 mcg, 30 mcg, 100 mcg), gE (5 mcg) in an oil-in-water emulsion (L2) with TQL-1055 free acid (three groups: 5 mcg, 30 mcg, 100 mcg), gE (5 mcg) in an oil-in-water emulsion (L2) with TQL-1055 free acid (three groups: 5 mcg, 30 mcg, 100 mcg) and PHAD liposomes (20 mcg), and gE (5 mcg) with PHAD liposomes (20 mcg). Mice were immunized at Day 0 and Day 14. Groups were bled at Day 13 (post Dose 1) and Day 28 (post Dose 2) for serum analysis.

Where [6] appears, read: mice immunized Day 0 and Day 14, serum Day 28 (post Dose 2).

Structures can show the parent of a compound that is named as a salt.

Regarding `CC1O[C@@H](OC2C(O)[C@@H](NC(=O)CCCCCCCCCCC(=O)O)C(CO)O[C@H]2OC(=O)[C@]23CCC(C)(C)CC2C2=CCC4C5(C)CC[C@H](O)C(C)(C=O)C5CCC4(C)[C@]2(C)CC3O)C(O)C(O)[C@H]1O[C@@H]1OC[C@@H](O)C(O)C1O` (stereo partly shown) [TQL-1055 choline salt], the “titers compared to groups including TQL-1055 free acid (Example 1)” value in the experiment on gE antigen [1] (after the first dose) and in the experiment on gE antigen [1] (after the second dose) was “trend to higher titers” throughout.

For `CC1O[C@@H](OC2C(O)[C@@H](NC(=O)CCCCCCCCCCC(=O)O)C(CO)O[C@H]2OC(=O)[C@]23CCC(C)(C)CC2C2=CCC4C5(C)CC[C@H](O)C(C)(C=O)C5CCC4(C)[C@]2(C)CC3O)C(O)C(O)[C@H]1O[C@@H]1OC[C@@H](O)C(O)C1O` (stereo partly shown) [TQL-1055 free acid], in the experiment on gE antigen [2] (mice, post dose 2, 50 mcg TQL-1055 free acid with PHAD liposomes, not statistically significant), the “gE-specific total IgG GMT compared to Group 7” value was “trended higher”. For the same molecule, the “gE-specific IgG1 GMT compared to Group 7” value with gE antigen [3] (mice, post dose 1, 50 mcg TQL-1055 free acid with PHAD liposomes) was “significantly higher”. For the same molecule, in the experiment on gE antigen [4], the “gE-specific IgG2c GMT compared to Group 7” value is on record as “significantly higher”.

B1: 5 mcg gE alone: VZV glycoprotein E (gE) antigen, 5 mcg, without adjuvant (protein, UniProt P09259 31-623, looked up)
Envelope glycoprotein E: SVLRYDDFHTDEDKLDTNSVYEPYYHSDHAESSWVNRGESSRKAYDHNSPYIWPRNDYDGFLENAHEHHGVYNQGRGIDSGERLMQPTQMSAQEDLGDDTGIHVIPTLNGDDRHKIVNVDQRQYGDVFKGDLNPKPQGQRLIEVSVEENHPFTLRAPIQRIYGVRYTETWSFLPSLTCTGDAAPAIQHICLKHTTCFQDVVVDVDCAENTKEDQLAEISYRFQGKKEADQPWIVVNTSTLFDELELDPPEIEPGVLKVLRTEKQYLGVYIWNMRGSDGTSTYATFLVTWKGDEKTRNPTPAVTPQPRGAEFHMWNYHSHVFSVGDTFSLAMHLQYKIHEAPFDLLLEWLYVPIDPTCQPMRLYSTCLYHPNAPQCLSHMNSGCTFTSPHLAQRVASTVYQNCEHADNYTAYCLGISHMEPSFGLILHDGGTTLKFVDTPESLSGLYVFVVYFNGHVEAVAYTVVSTVDHFVNAIEERGFPPTAGQPPATTKPKEITPVNPGTSPLLRYAAWTGGLAAVVLLCLVIFLICTAKRMRVKAYRVDKSPYNQSMYYAGLPVDDFEDSESTDTEEEFGNAIGGSHGGSSYTVYIDKTR
With B1, the “Day 13 Anti-gE GMT titer, 5 mcg PHAD in liposomes” value in the experiment with gE antigen [1] (Day 13 (post Dose 1), with 5 mcg PHAD in liposomes) is recorded as 19,037. Also, in the experiment on gE antigen [1] (Day 13 (post Dose 1), without PHAD liposomes), the “Day 13 Anti-gE GMT titer, without PHAD liposomes” value stood at 135. For the same molecule, in the experiment on gE antigen [1] (Day 28 (post Dose 2), with 5 mcg PHAD in liposomes), the “Day 28 Anti-gE GMT titer, 5 mcg PHAD in liposomes” value was 689,865. Also, the “Day 28 Anti-gE GMT titer, without PHAD liposomes” value in the experiment on gE antigen [1] (Day 28 (post Dose 2), without PHAD liposomes) is 12,311. In addition, the “gE-specific total IgG titers post dose 2, GMT” value with gE antigen [2] (setting [6]) is 949.8. Also, in the experiment with gE antigen [3] (setting [6]), the “gE-specific total IgG1 titers post dose 2, GMT” value came out at 793.1. Further, the “gE-specific total IgG titers post dose 1, Geometric mean” value in the experiment with gE antigen [5] (serum Day 13 (post Dose 1)) stood at 138.0. Moreover, in the experiment on gE antigen [5] (serum Day 28 (post Dose 2)), the “gE-specific total IgG titers post dose 2, Geometric mean” value amounted to 5012.

Source of the values: patent publication US12673101B2, “Varicella zoster” (ADJUVANCE TECHNOLOGIES, INC., priority 2019, dated 2026).
